Where two headings read alike, the source gives them in different places.
Experiments:
polymerized microtubules [1] = assay: single-molecule TIRF microscopy motility assay
polymerized microtubules [2] = assay: single-molecule TIRF microscopy motility assay; remark: listed apart in the source

| landing rate (molecules bound to microtubules per length and time) (polymerized microtubules [1]) | landing rate (molecules bound to microtubules per length and time) (polymerized microtubules [2]) | Substance |
| --- | --- | --- |
| 0.025 /μm/sec |  | full-length human KIF1A(R350G) fused to a C-terminal mScarlet-strepII tag (from UniProt Q12756 1-1690) (natural protein) |
| 0.039 /μm/sec |  | full-length human KIF1A(V8M) fused to a C-terminal mScarlet-strepII tag (from UniProt Q12756 1-1690) (natural protein) |
| 0.024 /μm/sec |  | full-length human KIF1A(A255V) fused to a C-terminal mScarlet-strepII tag (from UniProt Q12756 1-1690) (natural protein) |
| 0.002 /μm/sec | 0.012 /μm/sec | full-length human KIF1A fused to a C-terminal mScarlet-strepII tag (from UniProt Q12756 1-1690) (natural protein) |
